The values that follow come from patent publication US6746859.

Data set [1] addresses T1, E. coli thioredoxin/human IL-11 fusion protein with enterokinase cleavage spacer (UniProt P20809).
T1 sequence: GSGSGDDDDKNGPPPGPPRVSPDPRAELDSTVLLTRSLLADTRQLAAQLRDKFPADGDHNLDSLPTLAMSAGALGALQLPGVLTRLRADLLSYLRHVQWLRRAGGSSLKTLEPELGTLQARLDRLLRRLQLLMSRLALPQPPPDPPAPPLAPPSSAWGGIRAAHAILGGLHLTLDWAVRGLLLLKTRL

Data set [2] has as its system Trypsinogen.
Data set [3] relates to T2, Gly-(Asp4)-Lys-βNA fluorogenic enterokinase substrate.
T2 sequence: GDDDDK

For the substance “bovine-derived enterokinase holoenzyme (heavy and light chains)”, the figures for the EFFICIENCY OF CLEAVAGE (relative molar activities) (relative molar activity) in data set [1], in data set [2] and in data set [3] were 1, 100 and 1, respectively.
